Data taken from paper PMC11514446, “Transcription start site scanning requires the fungi-specific hydrophobic loop of Tfb3” (Nucleic Acids Research, 2024).

B1: Rpb4 (subunit of RNA polymerase II) (natural protein, S. cerevisiae, UniProt P20433 1-221, looked up)
chain: MNVSTSTFQTRRRRLKKVEEEENAATLQLGQEFQLKQINHQGEEEELIALNLSEARLVIKEALVERRRAFKRSQKKHKKKHLKHENANDETTAVEDEDDDLDEDDVNADDDDFMHSETREKELESIDVLLEQTTGGNNKDLKNTMQYLTNFSRFRDQETVGAVIQLLKSTGLHPFEVAQLGSLACDTADEAKTLIPSLNNKISDDELERILKELSNLETLY
notes: Rpb4, S. cerevisiae, subunit of RNA polymerase II; Stood in the assay as a subunit of pol II inside the reconstituted PIC-ΔTFIIK
B2: Tfa1 (subunit of TFIIE) (natural protein, S. cerevisiae, UniProt P36100 1-482, looked up)
chain: MDRPIDDIVKNLLKFVVRGFYGGSFVLVLDAILFHSVLAEDDLKQLLSINKTELGPLIARLRSDRLISIHKQREYPPNSKSVERVYYYVKYPHAIDAIKWKVHQVVQRLKDDLDKNSEPNGYMCPICLTKYTQLEAVQLLNFDRTEFLCSLCDEPLVEDDSGKKNKEKQDKLNRLMDQIQPIIDSLKKIDDSRIEENTFEIALARLIPPQNQSHAAYTYNPKKGSTMFRPGDSAPLPNLMGTALGNDSSRRAGANSQATLHINITTASDEVAQRELQERQAEEKRKQNAVPEWHKQSTIGKTALGRLDNEEEFDPVVTASAMDSINPDNEPAQETSYQNNRTLTEQEMEERENEKTLNDYYAALAKKQAKLNKEEEEEEEEEEDEEEEEEEEMEDVMDDNDETARENALEDEFEDVTDTAGTAKTESNTSNDVKQESINDKTEDAVNATATASGPSANAKPNDGDDDDDDDDDEMDIEFEDV
notes: Tfa1, S. cerevisiae, subunit of TFIIE; Stood in the assay as a subunit of TFIIE inside the reconstituted PIC-ΔTFIIK
B3: Tfa2 (subunit of TFIIE) (natural protein, S. cerevisiae, UniProt P36145 1-328, looked up)
chain: MSKNRDPLLANLNAFKSKVKSAPVIAPAKVGQKKTNDTVITIDGNTRKRTASERAQENTLNSAKNPVLVDIKKEAGSNSSNAISLDDDDDDEDFGSSPSKKVRPGSIAAAALQANQTDISKSHDSSKLLWATEYIQKKGKPVLVNELLDYLSMKKDDKVIELLKKLDRIEFDPKKGTFKYLSTYDVHSPSELLKLLRSQVTFKGISCKDLKDGWPQCDETINQLEEDSKILVLRTKKDKTPRYVWYNSGGNLKCIDEEFVKMWENVQLPQFAELPRKLQDLGLKPASVDPATIKRQTKRVEVKKKRQRKGKITNTHMTGILKDYSHRV
notes: Tfa2, S. cerevisiae, subunit of TFIIE; contains the WH domain; Stood in the assay as a subunit of TFIIE inside the reconstituted PIC-ΔTFIIK

molecular target: T1, Rad3 (subunit of core TFIIH / TFIIH-ΔTFIIK) (S. cerevisiae, UniProt P06839 1-778); assay: cryo-EM structure; PIC-ΔTFIIK reconstituted from purified factors (TFIIA, TFIIB, TBP, TFIIE, TFIIF, TFIIH-ΔTFIIK, pol II, TFIIS) on a HIS4 promoter DNA fragment, nucleotide-free; glycerol gradient with 0-0.125% glutaraldehyde fixation; two forms from 3D classification (form 1 at 3.7 Å, form 2 at 3.8 Å); conditions: both partners purified
T1 construct: Rad3, S. cerevisiae, subunit of the seven-subunit core TFIIH; contains the ARCH domain; Stood in the assay as a subunit of core TFIIH inside the reconstituted PIC-ΔTFIIK; also called XPD of metazoan TFIIH (homolog)
T1 sequence (looked up): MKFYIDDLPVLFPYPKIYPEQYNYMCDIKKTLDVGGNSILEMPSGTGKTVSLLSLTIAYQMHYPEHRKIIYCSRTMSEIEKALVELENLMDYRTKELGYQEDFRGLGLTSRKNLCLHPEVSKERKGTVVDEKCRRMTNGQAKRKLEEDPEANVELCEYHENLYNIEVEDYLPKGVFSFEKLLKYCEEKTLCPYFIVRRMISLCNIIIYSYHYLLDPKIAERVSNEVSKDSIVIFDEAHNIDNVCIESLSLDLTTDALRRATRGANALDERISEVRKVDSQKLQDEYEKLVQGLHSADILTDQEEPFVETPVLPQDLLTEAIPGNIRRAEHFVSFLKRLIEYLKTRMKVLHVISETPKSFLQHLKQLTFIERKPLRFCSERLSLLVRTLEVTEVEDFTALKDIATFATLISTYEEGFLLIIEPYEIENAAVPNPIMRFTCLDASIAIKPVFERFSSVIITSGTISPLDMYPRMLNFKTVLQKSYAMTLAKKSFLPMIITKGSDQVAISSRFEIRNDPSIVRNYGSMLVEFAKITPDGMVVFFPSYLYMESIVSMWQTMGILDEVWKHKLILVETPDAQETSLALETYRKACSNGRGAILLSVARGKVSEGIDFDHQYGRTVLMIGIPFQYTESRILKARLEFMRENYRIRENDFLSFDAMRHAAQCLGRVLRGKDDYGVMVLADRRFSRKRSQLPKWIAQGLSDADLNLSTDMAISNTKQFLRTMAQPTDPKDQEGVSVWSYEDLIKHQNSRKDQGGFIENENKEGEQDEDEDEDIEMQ

Binding result, binds:
B1
B2
B3
